The nature of this data set: soluble on expression in E. coli; label from the status in PepcDB or PDB records.
On to “MRRKHDWLRETYRKSLEKIPERPVAHRTLSNIAPDPLYTPEDIGVLDPEYEEKRGFPGEFPYTRGVYGSMYRSKLWTMRMFAGFGTAEQTNERFKKLLKAGQTGLSVAFDLPTLMGYDSDHPLSKGEVGKCGVAVSSLADMEILFEGINLEEVTTSMTINSPANAIWAMYLAVAKKRGYDWKKLGGTIQNDILKEYIAQKEFIFPPEPSVKLVIDTFEWGPKNVPKWNFISVSGYHIREAGSTAVQELAWTLADGFEYVEAALKRGLDIDEFAPRISFFFDVHNDFFEEIAKFRAARRIWAKEMRYRYKAKNPQSWMLRTHAQTAGVSLTAQQPLNNIARVAIQALAAVLGGTNSLHTDAYDEALALPTEESATIALRTQQIIAYETGVTHTIDPLAGSYYVEWLTDEMERQAMEIIEEIRRMGGVVRAIEEGYFLRELAEASYRYQQEVERKERIIVGVNAFTDEIPLKVPIQLVDPEVERVQAERLARVRRERDPKRVEEALQGLRRAAVEGQNTMPHFVECALAYCTLGEMMDVLREVYGTYQEPAYV”, for which the “soluble on expression in E. coli” value is “soluble”. Consider “MRRLKRDPLERAFLRGYQNGITGKSRDLCPFTHPTTRQSWLNGWREGRGDNWDGLTGTAGLQRLNQLQHVLEHHHHHH”, for which the “soluble on expression in E. coli” value is “not soluble”. For “MRRLLKEQFEAELPEDIRFYMGGKSRVYAYKSCEFDEIASHRGIYFGTIERDGLRLSIEGSFIAGKLAKKNVIELDEESFGRWMRGEDIEADVKGYCIVKHGSYFAGCGKGNGRVLRNFVPKDRRVID”, the “soluble on expression in E. coli” value was “not soluble”. “MRRSGNYNPSRWDVNFIQSLLSDYKEDKHVIRASELVTLVKMELEKETDQIRQLELIDDLQRMGLSDHFQNEFKEILSSIYLDHHYYKNPFPKEERDLYSTSLAFRLLREHGFQVAQEVFDSFKNEEGEFKESLSDDTRGLLQLYEASFLLTEGETTLESAREFATKFLEEKVNEGGVDGDLLTRIAYSLDIPLHWRIKRPNAPVWIEWYRKRPDMNPVVLELAILDLNIVQAQFQEELKESFRWWRNTGFVEKLPFARDRLVECYFWNTGIIEPRQHASARIMMGKVNALITVIDDIYDVYGTLEELEQFTDLIRRWDINSIDQLPDYMQLCFLALNNFVDDTSYDVMKEKGVNVIPYLRQSWVDLADKYMVEARWFYGGHKPSLEEYLENSWQSISGPCMLTHIFFRVTDSFTKETVDSLYKYHDLVRWSSFVLRLADDLGTSVEEVSRGDVPKSLQCYMSDYNASEAEARKHVKWLIAEVWKKMNAERVSKDSPFGKDFIGCAVDLGRMAQLMYHNGDGHGTQHPIIHQQMTRTLFEPFA”: the “soluble on expression in E. coli” value is recorded as “soluble”. Turning to “MRSIYLCRHGESELNLRGRIGGDSGLSARGKQYAYALANFIRSQGISSLKVWTSHMKRTIQTAEALGVPYEQWKALNEIDAGVCEEMTYEEIQEHYPEEFALRDQDKYRYRYPKGESYEDLVQRLEPVIMELERQENVLVICHQAVMRCLLAYFLDKSSDELPYLKCPLHTVLKLTPVAYGCRVESIYLNV”, the “soluble on expression in E. coli” value was “soluble”.

For the sequence “MRSQSTHSQSMRSDIYLLLATLLRDVPSAELCAFLAELDFEANGTEMAKAWQAMSAAAQNAQADSLADEYQELFIGIGRGEVVPFASWHLTGSLMEKPLADIRDDLSRLGLERDEQVREPEDHISALCETMAYLCEESGDENAAEETQQAFFNRHIAPWFGKLVSQIRQAPHAQFYLAVAQLLDAFLSLEQVAMTQAPSSRKNRYRIEVKNLTDKAEQ”, the “soluble on expression in E. coli” value was “not soluble”. As to “MRSSKGGRGRQAAPKTAPTTVCYCDGKRELGSVEVVCSTCLKWFHGRCLKEFHELNSNGVPFMICYTFTCKQCRPTAEDWKAKKADLVQMCVTVLATLSAERLKADGKLSAEHVPEDFTYLSLKDEIVPYMNENWYMLTAIKQKKEWHQNLAPTLLKEKNIFVQHNDDDDLFALAEKNLSLLGPLHEAVKLIGKRPIERENREPRHIELPPIEGPKTRGASKRRHAEAPVTGKKQKLAADYSSTAAPNGVQIDIPFSKDNYRYYLTEVDPNVPEDPAWNQNQSSAYVIPSFHYRELLNPTVNVSSNDRAFQLSINGNSITGFEGYSMARASHGVSKGTWYFEVNFDDQPDDSHIRIGWSQSYASLQACVGYNKFSYGWRSKHGTKFHEAKGKKYHFGGFKQGDVLGCLIHLPVDKKLQIPANLPSEKYLPVSHKGFNLISFKANYFFEVQEESADIAKTLVEMPGSYIEFFHNGKSCGKAYENIYAGAYYPSISIFKSATATMNLGPKFRNLPRGATGIHARADEQQHEQTLSDMLYLVSKEVNLDHPPRVKREDDDDVKDIKKEIKQEI”, the “soluble on expression in E. coli” value is on record as “not soluble”. With “MRSSTIPAITPAYDPWEAYVDIKEYGKLQLTNIEFTTTTLCNMRCEHCAVGYTLTMKDPEALPLDMLLRRLEEIPHLRSLSITGGEPMLSLKSVEQYVVPLLRYAHERGVRTQLNSNLTLDLSRYEPVIPYLDVLHISHNWGTVDDFVEGGFAMMERKPTRAQREKYFQRMLDNAKALANAGVMVSAETMLNKRTVRHLEAIHRQVVEEMGCQRHEIHPMYPSDFASALETLSLDELREAIHHLLDIRDENVWMLFGTLPFYPCSDNEEDVRLLKRLYESKNVTVRNDPDGRSRLNVNIFTGDVIVTDFGDEPPLGNIIHDSLPDVYDKWRRSKLARELLCHCPSARCLGPNVLVKQTYYRGVDFTKRSARIGR”, the “soluble on expression in E. coli” value was “not soluble”. As for “MRTDLALDFSVNKENKTITIKREFAAVRAIVWEAFTRAEILDQWWAPKPWKAKTKSMDFKEGGTWLYAMVGPNGEEHWSICEYAIIKPIERFTGKDGFTDASGKLNTEMPRSNWDMRFIDKGEITEVQYHISYDDVAQLEATIQMGFKEGITMAMENLDELLVSGKKLEHHHHHH”, the “soluble on expression in E. coli” value was “soluble”. On to “MRTHDDTWDIKTSVGATAVMVAAARAVETDRPDPLIRDPYARLLVTNAGAGAIWEAMLDPTLVAKAAAIDAETAAIVAYLRSYQAVRTNFFDTYFASAVAAGIRQVVILASGLDSRAYRLDWPAGTIVYEIDQPKVLSYKSTTLAENGVTPSAGRREVPADLRQDWPAALRDAGFDPTARTAWLAEGLLMYLPAEAQDRLFTQVGAVSVAGSRIAAETAPVHGEERRAEMRARFKKVADVLGIEQTIDVQELVYHDQDRASVADWLTDHGWRARSQRAPDEMRRVGRWVEGVPMADDPTAFAEFVTAERL”, for which the “soluble on expression in E. coli” value is given as “soluble”. As to “MRTIVFDVDDTLYDQQQPFRNAMTKIFPNVATEDMHELYLRFRHHSDETFPKVLANEWSLDFMRFFRMNETLKDLNYPGISQEEGKIFQQVYEEELDNITMHPEVTKLLDTLQEKEIPMGIITNGPTDHQFKKVKQLNIEKWVPSQNIIISQSTGFQKPEKEIFDLACNQFCMEPEHTLYVGDSYDNDIVGARNGGWHSLWFNHRSRELPSCQPASHLAEVTCFTELCPTVEKLFNL”, the “soluble on expression in E. coli” value is given as “not soluble”. Next, “MRTKYILELFDTSEQHKPIARFESSTPFTAASVGERFDDIGWERLDGAGKIASPLSPKRYTVHSAKHLVIVEAGALVIKYCLNLEPFSGPSSPVWGDE”: “not soluble”; “MRTLLDLDPKGKRVLVRVDYNVPVQDGKVQDETRILESLPTLRHLLAGGASLVLLSHLGRPKGPDPKYSLAPVGEALRAHLPEARFAPFPPGSEEARREAEALRPGEVLLLENVRFEPGEEKNDPELSARYARLGEAFVLDAFGSAHRAHASVVGVARLLPAYAGFLMEKEVRALSRLLKDPERPYAVVLGGAKVSDKIGVIESLLPRIDRLLIGGAMAFTFLKALGGEVGRSLVEEDRLDLAKDLLGRAEALGVRVYLPEDVVAAERIEAGVETRVFPARAIPVPYMGLDIGPKTREAFARALEGARTVFWNGPMGVFEVPPFDEGTLAVGQAIAALEGAFTVVGGGDSVAAVNRLGLKERFGHVSTGGGASLEFLEKGTLPGLEVLEG”: “soluble”. Take “MRTLPILLLVIVGVVYCYPLNEDNVDLESDVAEMEGAELDRVKRASDHKLEKKLDEIMEKVEKIKDKIEENKEKREKKNKKKGNKKDEDEEEEEDKDKKKKDKKKNKDSEEEEDKKKDKKKKNDSSDESEEENKKRKNKRKN”: the “soluble on expression in E. coli” value was “not soluble”. Consider “MRTQTFPPSSSSSRTTHPKKNRHSSNSSSMALVTPAKSSTGAAPKQSSQSGWDYWTRVYSDDAQTTGTPRDVRISDMLSSESLIRAKLLFLNVPSLPSAHKNIILNLVKRELNHDISIQDVVVVPPAKWFLNFYRPEDALKVMKHLNGYSYRGHILAVRFCYPDGTYGDESALTELVQCTNSAKGRILEKKDIVQDTFAVECWTKTEFDSLKVFEKELTNLLKAHAYLPYHTVLQSMRNLFTCKVQSELSSMFISDALAQWPTGLIRIFNRNVKVVSNTMCLSSSSYYTQRIHDSALEGGCSVHRNSWEPTVPDDIRSEVQLIQYTNSFLGHFGPQNIDVDIPIRILAQSLRGTWPKTGPKLAALLTEISSGFVLINRVLYLSSNLHHHEKIIDNLACFQDDCTDVYFLPLSCTTEDQKGKTVDYEDI”, for which the “soluble on expression in E. coli” value was “not soluble”. Consider “MRVDLERQQHQFLRRTYGPQHRLTTQQALTVMRVAAREQTRYSQRTTQCVAAHLLEQRAAVQQELQRARQLQSGNVDDALDSLTELKDTVDDVRATLVDSVSATCDLDLEVDDAVLEHHHHHH”, for which the “soluble on expression in E. coli” value is reported as “not soluble”. As to “MRVEKAWFLADGAEAPEGLPEGGFREVALPHQWSLEGVEAEVGWYRLALPEAGPRRFLLSFGDYYQEAWLDGTYLGRHEGYFFPWVLELPKGKELFLRVSAPKEPLGVWPRFKRQIKGVFGQHDCRPGGTTARGQERGTGGLWGGVEVWAREEVALLGLAHRLFPRAGGWRLWVRLLVDAQRPFRERARLFLVPANFPGEALEREAVLEGEAGRAWREVVWDLPEMPLWEVWERGFPHLFRLEADLLGARLGVPLGFRTVEVDGEGWLLLNGKRLFLRGTNAIPTQWLAAYSEAMAQKDVALLKEANLNAVRVHAHVTHPAFYAACDREGVLVWQDFPLQWGYAPDEAFAQEALRQARAMVEVLGAHPSVYLWCAQNEPTHNRHALGPLLAAALRAADPTRPVKEASDFREHPYPGWYRGHYRDFLALPGAPLPSEFGAQALPRAELLRRVLGEAAWPPRWEVWAYHNFQPHETFRVARVEMGESLEEFVERSQDYQARLIEFAVHAYRRAKGKVVGYFQFMFVEPWEGITWAVLDVERVPKKGFFALKEASSPVLLSLVPYRERVEVGGPPCRRPGS”, the “soluble on expression in E. coli” value was “soluble”. The same measure for “MRVSLFLQKQIIECSKAFQPHSTRLQWPKSQDKVFVAMSGGVDSSFSAYLLKSQGYNVEGVFMRNWLDEDSAPSGCPAERDWATVQKVCKKLNISCRRFNFEKEYWNLVFEPSLDLYENGLTPNPDVSCNRQVKFGALFDALKKHCENNVKGDWWLASGHYAKSVVNIETNESHMCIPTDKRKDQTLFLCTIRKEALEKTIFPLHNWTKENVKKQASSAGFKEIAEKQESQGLCFVSPNVGRKFRKFLQRYLNFSDRPIKVIAGKNVVGEFSGNHGIWSLTVGERCGLSLPQAQSEYFGRWYVWKKDIKNNALYICRGTNNELLMSKCIYLKDWKWCGTKLQNLEKSALSCFVRVRHQQPLQPAKVTWRNPESVKIHFQDKQRAVTPGQVIAVYVNDVCLGGGMVDTVEPEKDFD”: “soluble”.

Turning to “MRVVVSIGGSVLAPGLDADQVDAHADAINELTDAGCEVGAVVGGGGVARDYIGTARELGANEIELDDIGVDVTRLNARLLIAALGGDAAPSPAEDYEDAGEAMRRGDIAVMGGVVAGQTTDAVSAALAEYTDADLLLYATSVPGVFSADPNEDADAEHFTRMTAGELVDIIADIEMNAGSSAPVDLLAAKLIERSGVRTIVLDGTDPRRIVDAVRFGEHDGTDVIPDGTDNQMTYWADNQELEHHHHHH”, the “soluble on expression in E. coli” value is listed as “not soluble”. Next, “MRYFLCPGKTDMRKGMNSLCGVIHNKMGYDVRLGDVFIFINRQRTTMKLLHAEDGDLVLYIKRLEEGTFRLPEYDQQSRSYPMEWRDLVMMVKGINNGSAKRLKRLKALRKSDI”: “not soluble”.
